In patent publication US20090111753A1, “Nogo-A Polypeptide Fragments, Variant Nogo Receptor-1 Polypeptides, and Uses Thereof” (Yale University, priority 2004, published 2009):
No end group written: not given here. *: point of attachment. Biotin = O=C1N[C@H]2[C@H](CS[C@H]2CCCCC(=O)*)N1

T1: NgR expressed on COS-7 cells (species not stated)
T1 chain: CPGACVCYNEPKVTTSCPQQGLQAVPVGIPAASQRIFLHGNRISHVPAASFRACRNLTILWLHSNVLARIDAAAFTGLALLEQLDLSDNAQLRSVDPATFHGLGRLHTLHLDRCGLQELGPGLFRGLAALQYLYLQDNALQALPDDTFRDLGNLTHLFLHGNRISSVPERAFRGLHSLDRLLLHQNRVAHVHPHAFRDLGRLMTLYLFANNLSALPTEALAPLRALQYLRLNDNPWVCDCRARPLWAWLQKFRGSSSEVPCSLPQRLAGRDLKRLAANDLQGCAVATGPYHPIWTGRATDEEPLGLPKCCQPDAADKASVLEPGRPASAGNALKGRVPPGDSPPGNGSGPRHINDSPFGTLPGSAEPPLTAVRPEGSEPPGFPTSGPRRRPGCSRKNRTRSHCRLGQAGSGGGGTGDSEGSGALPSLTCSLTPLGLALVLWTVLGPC


Assays:
E13 chick DRG neurons = test: cDRG neurite outgrowth assay; format: cell-based
Description: FIG. 2D. Differential effects of Amino-Nogo fragments on neurite outgrowth. Dissociated neurons from E13 chick DRGs were plated on 96 well dishes coated with lpmol protein per well and stained for neurofilament localization.
FIG. 2E. Neurite length per neuron were measured and plotted as percentage of PBS control with increasing concentration of dried protein for experiment described in […].
FIG. 6C. B24/32 peptide inhibits neurite outgrowth. Dissociated neurons from E13 chick DRG were plated onto 96 well dishes coated with 500 pmol of dried peptides as indicated and stained for neurofilament localization.
FIG. 6D. Neurite length per neuron was measured and plotted as percentage of PBS control for experiments as in (C).
It has been recognized that the Amino-Nogo-A protein inhibits non-neuronal cell spreading and axonal outgrowth when the protein is substrate bound (Chen, M. S., et al., Nature 403:434-439 (2000); Fournier, A. E., et al., Nature 409:341-346 (2001)). […] The later domain has been termed Δ20. To determine whether the NgR-interacting aa of Amino-Nogo-A described in Example 1 regulate cell spreading and axonal outgrowth, various fragments were expressed as GST fusion proteins and purified from E. coli. To generate GST fusion proteins, amino Nogo fragments were cloned in pGEX2T (Amersham Pharmacia). Native and soluble GST fusion proteins were expressed and purified as described (GrandPre, T., et al., Nature 403:439-444 (2000)). COS-7 binding assays were done as described (Fournier, A. E., et al., Nature 409:341-346 (2001)). Bound AP to COS-7 cells was measured using NIH image software. Fibroblast spreading and cDRG outgrowth assay were done as described (Fournier, A. E., et al., Nature 409:341-346 (2001)) with some modifications. Briefly, 50 μl of purified GST fusion protein or peptides diluted in PBS was pipetted into polylysine precoated 96 well plates (Becton Dickson Biocoat plates) and dried overnight at room temperature. For fibroblast spreading assay, subconfluent COS-7 cells were then plated for 1 hour in serum containing medium before fixation and staining with rho damine-phalloidin.
The same GST-Amino-Nogo proteins were tested for their ability to reduce neurite outgrowth from chick E13 DRG neurons. For cDRG outgrowth assay, dissociated E13 cDRG neurons were plated for 6 hours before fixation. […] Cell area, number of attached cells and neurite length were measured using the Imageexpress machine and software (Axon Instrument).
We reasoned that fusing the 24 aa segment of Amino-Nogo-A to NEP32 antagonist peptide might create a high affinity antagonist with a potency similar to the binding of AP-B4C-66 to NgR. […] Cell area, number of attached cells and neurite length were measured using the linageexpress machine and software (Axon Instrument).

[1] = biological target: T1, NgR expressed on COS-7 cells (species …); test: AP fusion on NgR-expressing COS-7 cells
Description: Several alkaline phosphatase (AP) fusion proteins containing various Nogo-A segments derived from regions between the amino terminus and the first hydrophobic segment were examined to identify the mechanism of Amino-Nogo-A action. To generate additional AP fusion proteins, human amino Nogo fragments were amplified and ligated to the pcAP6 vector digested with restriction enzymes EcoRI and XhoI as described (Fournier, A. E., et al., Nature 409:341-346 (2001)). Plasmids were then transfected into HEK293T cells and conditioned media were collected after 7 days. None of these fragments bind with high affinity to non-transfected COS-7 cells. […] This binding is saturable with a Kd indistinguishable from that for AP-Nogo-66 association with NgR (Table I). To better define the region responsible for Amino-Nogo interaction with NgR, a range of truncation mutants of Amino-Nogo were examined as AP fusion proteins.
Binding Kds for AP fused Amino-Nogo fragments were measured by applying conditioned media containing AP fusion protein to NgR expressing COS-7 cells. Bound AP was stained and measured.

Molecule	Kd [1] [nM]	other results
biotin-IFSAELSKTSVVDLLYWRDIKKTGGRIYKGVIQAIQKSDEGHP FRAYLESEVAISEE [24-32 fusion peptide]		axon outgrowth from DRG neurons (E13 chick DRG neurons; 500 pmol of dried biotinylated peptide per well): potently inhibited axon outgrowth
Biotin-IFSAELSKTSVVDLLYWRDIKKTG [carboxyl 24 aa segment of Amino-Nogo-A]		effect on Nogo-66 action on neurite outgrowth (E13 chick DRG neurons; biotinylated peptide, FIGS. 6C and 6D): does not block or enhance Nogo-66 action on neurite outgrowth
IFSAELSKTSVVDLLYWRDIK (ligand, also: alkaline phosphatase (AP) fusion, not shown: alkaline phosphatase (AP), vector pcAP6) [AP-fused Amino-Nogo fragment a.a. 995-1015]	4.55	
FSAELSKTSVVDLLYWRDIKKTG (ligand, also: alkaline phosphatase (AP) fusion, not shown: alkaline phosphatase (AP), vector pcAP6) [AP-fused Amino-Nogo fragment a.a. 996-1018]	26.6	
IFSAELSKTSVVDLLYWRDI (ligand, also: alkaline phosphatase (AP) fusion, not shown: alkaline phosphatase (AP), vector pcAP6) [AP-fused Amino-Nogo fragment a.a. 995-1014]	3.19	

More lines, in order of falling Kd [1], values ahead:

Kd [1] [nM]	Molecule	other results
2.69	KVLVKEAEKKLPSDTEKEDRSPSAIFSAELSKTSVVDLLYWRDIKKTG (ligand, also: alkaline phosphatase (AP) fusion, not shown: alkaline phosphatase (AP), vector pcAP6) [AP-fused Amino-Nogo fragment a.a. 971-1018]	
2.48	IFSAELSKTSVVDLLYWRD (ligand, also: alkaline phosphatase (AP) fusion, also called Ng19; not shown: alkaline phosphatase (AP), vector pcAP6) [AP-fused Amino-Nogo-A-19 (a.a. 995-1013)]	
2.43	IFSAELSKTSVVDLLYWRDIKKTG (ligand, also: alkaline phosphatase (AP) fusion, also called Amino-Nogo-24; not shown: alkaline phosphatase (AP), vector pcAP6) [AP-Amino-Nogo-A-24 (a.a. 995-1018)]	
